{"source": "paper PMC4478124", "test_in_all_cases": "SPR", "key": {"[1]": {"biological_target": "MBP-P66M fusion protein (wild-type middle portion of Borrelia burgdorferi P66, a.a. 170-404) (Borrelia burgdorferi) (UniProt H7C7N8)"}, "[2]": {"biological_target": "MBP-P66M-D205A,D207A fusion protein (Borrelia burgdorferi) (UniProt H7C7N8)"}, "[3]": {"biological_target": "MBP-P66M-Del202-208 fusion protein (Borrelia burgdorferi) (UniProt H7C7N8)"}}, "data": [{"substance": "purified recombinant human integrin αvβ3 (carrier free) (from UniProt P06756 31-1048; P05106 27-718) (receptor)", "values": [{"measurement": "kon", "setting": "[1]", "value": 321000, "unit": "M⁻¹ s⁻¹"}, {"measurement": "Kd", "setting": "[2]", "value": 29.3, "unit": "µM"}, {"measurement": "kon", "setting": "[2]", "value": 710, "unit": "M⁻¹ s⁻¹"}, {"measurement": "Kd", "setting": "[3]", "value": 178, "unit": "µM"}]}, {"substance": "purified recombinant mouse integrin αvβ3 (carrier free) (from UniProt P43406 31-1044; O54890 26-717) (receptor)", "values": [{"measurement": "kon", "setting": "[1]", "value": 112000, "unit": "M⁻¹ s⁻¹"}, {"measurement": "Kd", "setting": "[2]", "value": 20.3, "unit": "µM"}, {"measurement": "kon", "setting": "[2]", "value": 1450, "unit": "M⁻¹ s⁻¹"}, {"measurement": "Kd", "setting": "[3]", "value": 264, "unit": "µM"}]}]}
